What all share (test): competition
The target of series [1] is T1, Hera (Thermus thermophilus, UniProt O07897 1-510).
T1 sequence: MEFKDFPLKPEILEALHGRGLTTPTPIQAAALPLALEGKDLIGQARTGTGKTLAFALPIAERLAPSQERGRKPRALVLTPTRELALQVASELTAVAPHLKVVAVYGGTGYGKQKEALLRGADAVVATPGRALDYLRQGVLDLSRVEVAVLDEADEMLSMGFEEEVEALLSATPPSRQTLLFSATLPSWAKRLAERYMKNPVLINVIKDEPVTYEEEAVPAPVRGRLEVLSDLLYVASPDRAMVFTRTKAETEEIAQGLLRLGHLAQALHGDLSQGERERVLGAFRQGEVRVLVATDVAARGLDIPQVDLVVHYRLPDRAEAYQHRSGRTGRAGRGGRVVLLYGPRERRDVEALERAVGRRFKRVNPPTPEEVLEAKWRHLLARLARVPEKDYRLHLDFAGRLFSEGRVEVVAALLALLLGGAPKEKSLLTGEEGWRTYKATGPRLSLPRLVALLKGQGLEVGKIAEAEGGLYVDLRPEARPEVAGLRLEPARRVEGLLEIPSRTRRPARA

Series [2] deals with T1, Hera. The source holds these as a separate data set.
For series [3], the target named is T1, Hera. The source holds these as a separate data set.

Where two headings read alike, the source gives them in different places.

B1: tRNAPro (TT_RS01350) (structured_RNA)
RNA: CGGGGCGUAGCGCAGGCCGGUAGCGCACCUGCUUUGGGAGCAGGGGGUCGCCCGUUCAAAUCGGGCCGCCCCGACCA
Broadly, the Kd is the constant that tells how readily two partners part at equilibrium. Higher therefore signals lower affinity. For the molecule B1, binding in series [1] was characterised by a dissociation constant (Kd) of 1.4 µM.

B2: tRNATyr (TT_RS08805) (structured_RNA)
RNA: GGGCAGGUGCCCGAGCGGCCAAAGGGGACGGUCUGUAAAACCGUUGGCGUAUGCCUUCGCUGGUUCGAAUCCAGCCCUGCCCACCA
Molecule B2 showed a Kd in series [1] of 0.4 µM.

For the molecule AAAAAAAAAAAAAAAAAAAAAAAAAAAAAAAAAAAAAAAAAAAAAAAAAA (ssRNA) [50A], the binding result in series [1] is “no binding”.

UUUUUUUUUUUUUUUUUUUUUUUUUUUUUUUUUUUUUUUUUUUUUUUUUU (ssRNA) [50U] came in with a Kd in series [1] of 0.24 ± 0.05 µM.

For CUGGCUUGCCCGGGAGAUCCUGGGCUACCCCGA (ssRNA) [RNA 9], the binding result in series [1] is recorded as “binds”.

Turning to AGGTCCCAA (ssDNA) [9mer DNA], the binding result in series [1] is reported as “no binding”.

Consider UUUGGGGCUGCGGGGCUGGACCCCACGGGCGCCGCCACCC (ssRNA) [RNA 13], for which the binding result in series [1] is recorded as “binds”.

Turning to CUCGUGGCCCUGGCGAGGAGGCUCGUGGAGGAGUAC (ssRNA) [RNA 1640], the binding result in series [2] is “no binding”.

B3: tRNAPro (TT_RS02830) (structured_RNA)
RNA: CGGGGAGUAGCGCAGCCCGGUAGCGCACCUCGUUCGGGACGAGGGGGUCGCUGGUUCAAAUCCAGUCUCCCCGACCA
With B3, the affinity in series [1], expressed as Kd, was 0.6 µM.

Take GCCAAGCCGGGCCUGGAC (ssRNA) [RNA 1638]: the binding result in series [2] is “no binding”.

B4: tRNAPro (TT_RS09670) (structured_RNA)
RNA: CGGGGAGUAGCGCAGCCUGGUAGCGCACACGCUUGGGGUGCGUGGGGUCGUCGGUUCAAAUCCGGCCUCCCCGACCA
B4 gave a Kd in series [1] of 0.4 µM.

For the molecule CCUGCACGUUCCCACCGCCUGGGU (ssRNA) [RNA 1654], the binding result in series [3] is given as “no binding”.

B5: tRNASer (TT_RS06780) (structured_RNA)
RNA: GGAGAGGUGGCCGAGUGGUCGAAGGCGGCACCCUGCUAAGGUGUUGCACCGGGAAAACCGGUGCCGCGGGUUCGAAUCCCGCCCUCUCCGCCA
Molecule B5 had a Kd in series [1] of 0.06 µM.

On to UAGGGGCGUGUGGGCCCACCCGGCGUGGCGCUGGCUCCACC (ssRNA) [RNA 2], for which the binding result in series [1] is given as “binds”.

B6: tRNAGly (TT_RS08190) (structured_RNA)
RNA: GCGGGAGUAGCUCAGUCGGUAGAGCACGACCUUGCCAAGGUCGGGGUCGCGGGUUCAAGUCCCGUCUCCCGCUCCA
Regarding B6, the Kd in series [1] stood at 0.4 µM.
